# B1: TPR t1 (parent)
# chain: GACCAAUCUGCCCUCAGAGCUCGAGAACAUCUUCGGAUGCAGAGGAGGCAGGCUUCGGUGGCGCGAUAGCGCCAACGUCCUCAACCUCCAAUGCAUCCCACCACAUGAUGAUGCCUGAAGAGCCUUGGUUUUUUG
# Variants of: B1
# Assay: polymerase ribozyme fitness, log enrichment relative to wild type (log ratio); higher = more active; in vitro selection for triplet polymerase activity
# Summary of the method: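 One round of in vitro selection, in triplicate, was applied to PCR-built, transcribed mutant libraries of each subunit of a heterodimeric triplet polymerase ribozyme. The steps were annealing with a biotinylated primer, partner subunit and triplets, incubation frozen at −7 °C, gel excision of extended constructs, streptavidin-bead capture and RT-PCR. Fitness is the logarithm, base 2, of genotype enrichment over wild-type enrichment from inverse-variance-weighted replicate averages of Illumina-sequenced inputs and outputs, keeping genotypes with ≥10 input reads and ≥1 read per output.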
row,Variant,polymerase ribozyme fitness (log ratio)
1,GACCAAUCUGCCCUCAGAGCUCGAGAACAUCUUCGGAUACAGAGGAGGCAGGCUUUGGUGGCGCGAUAGCGCCAACGUCCUCAACCUCCAAUGCAUCCCACCACAUGAUGAUGCCUGAAGAGCCUUGGUUUUUUG [G39A C56U],-0.755
2,GACCAAUCUGCCCUCAGAGCUCGAGAACAUCUUCGGAUCCAGAGGAGGUAGGCUUCGGUGGCGCGAUAGCGCCAACGUCCUCAACCUCCAAUGCAUCCCACCACAUGAUGAUGCCUGAAGAGCCUUGGUUUUUUG [G39C C49U],-1.61
3,GACCAAUCUGCCCUCAGAGCUCGAGAACAUCUUCGGAUACAGAGGAGGCAGGCUUCGGUGGCGCGAUAGCGCCAACGUCCUCAACCUCCAAUGCAUCCCACCACAUGAUGCUGCCUGAAGAGCCUUGGUUUUUUG [G39A A111C],-0.291
4,GACCAAUCUGCCCUCAGAGCUCGAGAACAUCUUCGGAUACAGAUGAGGCAGGCUUCGGUGGCGCGAUAGCGCCAACGUCCUAAACCUCCAAUGCCUCCCACCACAUGAUGAUGCGUGAAGAGCCUUGGUUUUUUG [G39A G44U C82A A95C C115G],-3.83
5,GACCAAUCUGCCCUCAGAGCUCGAGAACAUCUUCGGAUACAGAGGAGGCAGGCUUCGGUGACGCGAUAGCGCCAACGUCCUCAACCUCCAAUGCAUCCCACCACAUGAUGAUGCCUGAAGAGCCUUGGUUUUUUG [G39A G61A],-0.128
6,GACCAAUCUGCCCUCAGAGCUCGAGAACAUCUUCGGAUACAGAGGAGGCAGGCUUCGGUGGCGUGAUAGCGCCAACGUCCUCAACCUCCGAUGCAUCCCACCACAUGAUGAUGCCUGAAGAGCCUUGGUUUUUUU [G39A C64U A90G G135U],-1.27
7,GACCAAUCUGCCCUCAGAGCUCGAGAACAUCUUCGGAUACAGAGGAGGCAGGCUUCGGUGGCGCGAUAGCGCCAACGUCCUCAACCUCCAAUGCAUCCCACCAAAUGAUGAUGCCUGAAGAGCCUUGGUUUUUUG [G39A C104A],-2.08
8,GACCAAUCUGCCCUCAGAGCUCGAGAACAUCUUCGGAUACAGAGGAGGCAGGCUUCGGUGGCGCGAUAGCGCCAACGUCCUCAACCUCCAAUGCAUCCCACCAUAUGAUGAUGCCUGAAGAGCCUUGGUUUUUUG [G39A C104U],-0.931
9,GACCAAUCUGCCCUCAGAGCUCGAGAACAUCUUCGGAUACAGAGGAGCCAGGCUUCGGUGGCGCGAUAGCGCCAACGUCCUCAACCUCCAAUGCAUCCCACCACAUGAUGAUGCCUGAAGAGCCUUGGUUUUUUG [G39A G48C],-1.23
10,GACCAAUCUGCCCUCAGAGCUCGAGAACAUCUUCGGAUACAGAGGAGACAGGCUUGGGUGGCGCGAUAUCGCCAACGUCCUCAACCUCCAAUGCAUCCCACCACCUGAUGAUGCCUGAAGAGCCUUGGUUUUUUG [G39A G48A C56G G69U A105C],-2.52
11,GACCAAUCUGCCCUCAGAGCUCGAGAACAUCUUCGGAUCAAGAGGAGGCAGGCUUCGGUGGCGCGAUAGCGCCAACGUCCUCAACCUCCAAUGCAUCCCACCACAUGAUGAUGCCUGAAGAGCCUUGGUUUUUUG [G39C C40A],-3.01
12,GACCAAUCUGCCCUCAGAGCUCGAGAACAUCUUCGGAUACAGAGGAGGCAGGCUUCGGUGGCGCGAUAGCGCCAACGUCCUCAACCUACAAUGCAUCCCACCACAUGAUGAUGCCUGAAGAGCCUUGGUUUUUUG [G39A C88A],-1.32
13,GACCAAUCUGCCCUCAGAGCUCGAGAACAUCUUCGGAUACAGAGGAGGAAGGCUUCGGUGGCGCGAUAGCGCCAACGUCCUCAACCUCCAAUGCAUCACACCACAUGAUGACGCCUGAAGAGCCUUGGUUUUUUG [G39A C49A C98A U112C],-3.94
14,GACCAAUCUGCCCUCAGAGCUCGAGAACAUCUUCGGAUACAGAGGAGGCAGGCUUCGGUGGCGCGAUAGCGCCAACGUCCUCAACCUCCAAUGCAUCCCACCACAUGAUGAUGCCUGAAGAGCCUUGGCUUUUUG [G39A U129C],-0.434
15,GACCAAUCUGCCCUCAGAGCUCGAGAACAUCUUCGGAUACAGAGGAGGCAGGCUUCGGUGGCGCGAUAGCGCUAACGUCCUCAACCUCCAAUGCAUCCCACCACAAGACGAUACCUAAAGAGCCUUGGUUUUUUG [G39A C73U U106A U109C G113A G117A],-5.45
16,GACCAAUCUGCCCUCAGAGCUCGAGAACAUCUUCGGAUACAGAGGAGGCAGGCUUCGGUGGUGCGAUAGCGCCAACGUCCUCAACCUCCAAUGCAUCCCACCACAUGAUGAUGCCUGAAGAGCCUUGGUUUUUUG [G39A C62U],-0.84
17,GACCAAUCUGCCCUCAGAGCUCGAGAACAUCUUCGGAUACAGAGGAGGCAGGCUUCGGUGGGGCGAUAGCGCCAACGUCCUCAACCUCCAAUGCAUCCCACCACAUGAUGAUGCCUGAAGAGCCUUGGUUUUUUG [G39A C62G],-2.59
18,GACCAAUCUGCCCUCAGAGCUCGAGAACAUCUUCGGAUACAGAGGAGGCAGGCUUCGGUGGCGCGAUAGCGCCAACGUCCUCAACCUCCAAUGUAUCCCACCACAUGAUGAUGCCUGAAGAGCCUUGGUUUUUUG [G39A C94U],-0.565
19,GACCAAUCUGCCCUCAGAGCUCGAGAACAUCUUCGGAUACAGACGAGGCAGGCUUCGGUGGCGCGAUAGCGCCAACGUCCUCAACCUCCAAUGCAUCCCACCACAUGAUGAUGCCUGAAGAGCCUUGGUUUUUUG [G39A G44C],-1.34
20,GACCAAUCUGCCCUCAGAGCUCGAGAACAUCUUCGGAUACAGAGGAGGCAGGCUUCGGUGGCGCGAUAGCCCCAACGUCCUCAACCUCCAAUGCAUCCCACCACAUGAUGAUGCCUGAAGAGCCUUGGUUUUUUG [G39A G71C],-2.63
21,GACCAAUCUGCCCUCAGAGCUCGAGAACAUCUUCGGAUACAGAGGAGGCAGGCUUCGGUGGCGCGAUAGCGCCAACGUCCUCAACCUCCAAUGCAUCCCACCACAUGAUGAUGCCUGAAGAGACUUGGUUUUUUG [G39A C123A],-0.277

row,Variant,polymerase ribozyme fitness (log ratio)
1,GACCAAUCUGCCCUCAGAGCUCGAGAACAUCUUCGGAUACAGAGGAGGCAGGCUUCGGUGGCGCGCUAGCGCCAACGUCCUCAACGUCCAAUGCAUCCCACCACAUGAUGAUGCCUGAAGAGCCUUGGUUUUUUG [G39A A66C C86G],-2.29
2,GACCAAUCUGCCCUCAGAGCUCGAGAACAUCUUCGGAUACAGAGGAGGGAGGCUUCGGUGGGGCGAUAGCGCCAACGUCCUCAACCUCCCAUGCAUCCCACCACAUGAUGAUACCUGAAGAGCCUUGGUUUUUUG [G39A C49G C62G A90C G113A],-6.39
3,GACCAAUCUGCCCUCAGAGCUCGAGAACAUCUUCGGAUACAGAGGAGGCAGGCUUCGGUGGCGCGAUAGCGCCAACGUCCUCAACCUCCAAUACAUCCCACCACAUGAUGAGGCCUGAAGAGACUUGGUUUUUUG [G39A G93A U112G C123A],-3.6
4,GACCAAUCUGCCCUCAGAGCUCGAGAACAUCUUCGGAUACAGAGGAGGCAGGCUUCGGUGGCGCGAUAGCGCCAACGUCCUCAACCUCCAAUGCAUCCCACCACAUGAUUAUGCCUGAAGAGCCUUGGUUUUUUG [G39A G110U],-2.32
5,GACCAAUCUGCCCUCAGAGCUCGAGAACAUCUUCGGAUACAGAGGAGUCAGGCUUCGGUGGCGCGAUAGCUCCAACGUCCUCAACCUCCAAUGCAUCCCACCACAUGAUGAUGCCAGAAGAGCCUUGGAUUUUUG [G39A G48U G71U U116A U129A],-5.41
6,GACCAAUCUGCCCUCAGAGCUCGAGAACAUCUUCGGAUACAGAGGAGGCAGGCUUCGGUGGCGCGAUAGCGCCAACGCCCUCAACCUCCAAUGCAUCCCACCACAUGAUGAUGCCUGAAGAGCCUUGGUUUUUUG [G39A U78C],-1.06
7,GACCAAUCUGCCCUCAGAGCUCGAGAACAUCUUCGGAUACAGAGGAGGCAGGCUUCGGUGGCGCGAUAGCGCAAACGUCCUCAACCUCCAAUUCAUCCCACCACAUGAUGAUGCCUGAAGAGCCUUGGUUUUUUG [G39A C73A G93U],-2.29
8,GACCAAUCUGCCCUCAGAGCUCGAGAACAUCUUCGGAUACAGAGGAGGCAGGCUUCGGUGGCGCGAUAGCGCCAACGUCCUCAACCUCCAAUGCAUCCCACCACAUGAUGAUGCCUGAAGAGCCUUGGUUUUUUC [G39A G135C],-0.0346
9,GACCAAUCUGCCCUCAGAGCUCGAGAACAUCUUCGGAUACAGAGGAGGAAGGCUUCGGUGGCGCGAUAGCGCCAACGUCCUCAACCUCCAAUGCAUCCCACCACAUGAUGAUGCCUGAAGAGCCUUGGUUUUUUG [G39A C49A],-0.508
10,GACCAAUCUGCCCUCAGAGCUCGAGAACAUCUUCGGAUACAGAGGAGGCAGGCUUCGGUGGCGCGAUAGCGCCAACGUCCUCUACCUCCAAUGCAUCCCACCACAAGAUGAUGUCUGAAGAGCCUUGGUUUUUUG [G39A A83U U106A C114U],-4.87
11,GACCAAUCUGCCCUCAGAGCUCGAGAACAUCUUCGGAUACAGAGGAGGCAUGCUUCGGUGGCGCGAUAGCGCCAACGUCCUCAACCUCCAAUGCAUCCCACCACAUGAUGAUGCCUGAAGAGCCUUGGGUUUUUG [G39A G51U U129G],-5.53
12,GACCAAUCUGCCCUCAGAGCUCGAGAACAUCUUCGGAUCCAGCGGAGGCAGGCUUCGGUGGCGCGAUAUCGCCAACGUCCUGAACCUCCAAUGCACCCCACCACAUGAUGAUGCCUGAAGAGCCUUGGUUUUUUG [G39C A43C G69U C82G U96C],-3.31
13,GACCAAUCUGCCCUCAGAGCUCGAGAACAUCUUCGGAUACAGAGGAGGCAGGCUUCGGUGGCGCGAUAGCGCCAACGUCAUCAACCUCCAAUGCAUCUCACCACAUGAUGAUGCCUGAAGAGCCUUGGUUUUAUG [G39A C80A C98U U133A],-6.34
14,GACCAAUCUGCCCUCAGAGCUCGAGAACAUCUUCGGAUACAGAGGAGGCAGGCUUCGGUGGCGCGAUAGCGCCAACGUCCUCAACCUCCAAUGCAUCCCACUACAUGAUGAUGCCUGGAGAGCCUUGGUUUUUUG [G39A C102U A118G],-2.73
15,GACCAAUCUGCCCUCAGAGCUCGAGAACAUCUUCGGAUACAGAGGAGGCAGGCUUCGGUGGCGCGAUAGCGCCAACGUCCUCAACCUCCAAUGCAUCCCACCACAUGAUGAUGCCUGAAGAGCUUUGGUUUUUUG [G39A C124U],1.26
16,GACCAAUCUGCCCUCAGAGCUCGAGAACAUCUUCGGAUACAGAGGAGGCAUGCUUCGGUGGCGCGAUAGCGCCAACGUCCUCAACCUCCAAUGCAUCCCACCACAUGAUGAUGCCUGAAGAGCCUUGGUUUUUUG [G39A G51U],-3.49
17,GACCAAUCUGCCCUCAGAGCUCGAGAACAUCUUCGGAUACAGAGCAGGCAGGCUUCGGUGGCGCGAUAGCGCCAACGUCCUCAACCUCCAAUGCAUCCCACCACAUGAUGAUGCCUGAAGAGCCUUGGUUUUUUG [G39A G45C],-2.32
18,GACCAAUCUGCCCUCAGAGCUCGAGAACAUCUUCGGAUACAGAGCAGGCAGGCUUCGGUUGCGCGAUAUCGCCAACGUCCUUAACCUCCAAUGCAUCCCACCACAUGAUGAUGCCUGAAGAGCCUUGGUUUUUUG [G39A G45C G60U G69U C82U],-5.66
19,GACCAAUCUGCCCUCAGAGCUCGAGAACAUCUUCGGAUACAGAGGAGGCAGGCUUCGGUGGCGCGAUAGCGUCAACGCCCUCAACCUCCAAUGCAUCCUACCACAUGAUGAUGCCUGAAAAGCCUCGGUUUUUUG [G39A C72U U78C C99U G120A U126C],-2.95
20,GACCAAUCUGCCCUCAGAGCUCGAGAACAUCUUCGGAUACAGAGGAGGCAGGCAUCGGUGGCGCGAUAGCGCCAACGUCCUCAACCUCCAAUGCAUCCCACCACAUGAUGAUGCCUGAAGAGCCUUGGUUUUUUG [G39A U54A],-0.685
21,GACCAAUCUGCCCUCAGAGCUCGAGAACAUCUUCGGAUACAGAGGAGGCAGGCUUCGGUGGCGCGAUAGCGCCAACGUCCUCAACCUCCAAUGCAUCCCACCACAUGAUGAUGCCUGAAGAGCCUUGAUUUUUUG [G39A G128A],-2.58
